Tests used:
Twinkle NTD [1] = molecular target: T1, Twinkle NTD (Homo sapiens, UniProt Q96RR1 43-372); experiment: fluorescence anisotropy; no NaCl added; tight phase of two-site fit; 50 mM Tris acetate pH 7.5, 10% glycerol, 0.05% Tween-20, 0.5 mM DTT, 0 or 50 mM NaCl; 2.5 nM DNA; no Mg2+ or nucleotide listed; temperature not stated; conditions: protein: recombinant; tags: SUMO tag removed (ULP1); label: 3' fluorescein-T; single strand
T1 sequence: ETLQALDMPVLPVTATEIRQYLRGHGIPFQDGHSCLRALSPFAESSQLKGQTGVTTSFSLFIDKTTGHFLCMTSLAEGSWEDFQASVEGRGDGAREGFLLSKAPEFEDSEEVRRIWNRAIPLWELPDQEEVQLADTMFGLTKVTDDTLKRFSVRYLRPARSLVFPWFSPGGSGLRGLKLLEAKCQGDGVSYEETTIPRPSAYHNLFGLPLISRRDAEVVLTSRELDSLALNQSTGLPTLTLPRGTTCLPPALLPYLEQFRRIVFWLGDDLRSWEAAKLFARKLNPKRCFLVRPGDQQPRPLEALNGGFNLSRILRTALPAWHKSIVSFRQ

[2] = molecular target: T2, Twinkle CTD (C-terminal domain plus linker) (Homo sapiens, UniProt Q96RR1 360-684); experiment: fluorescence anisotropy; no NaCl added; 50 mM Tris acetate pH 7.5, 10% glycerol, 0.05% Tween-20, 0.5 mM DTT, 0 or 50 mM NaCl; 2.5 nM DNA; no Mg2+ or nucleotide listed; temperature not stated; conditions: protein: recombinant; tags: SUMO tag removed (ULP1); chain copies: 6; label: 3' fluorescein-T; single strand
T2 sequence: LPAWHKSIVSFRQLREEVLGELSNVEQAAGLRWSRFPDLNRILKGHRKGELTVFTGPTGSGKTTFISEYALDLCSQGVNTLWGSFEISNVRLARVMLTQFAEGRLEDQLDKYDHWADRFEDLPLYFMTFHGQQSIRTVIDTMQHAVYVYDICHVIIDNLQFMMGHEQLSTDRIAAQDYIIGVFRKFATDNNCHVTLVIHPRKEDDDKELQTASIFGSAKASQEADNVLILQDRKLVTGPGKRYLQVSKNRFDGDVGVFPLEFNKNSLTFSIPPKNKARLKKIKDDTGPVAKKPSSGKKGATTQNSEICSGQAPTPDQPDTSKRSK

[3] = molecular target: T3, FL Twinkle (mitochondrial helicase) (Homo sapiens, UniProt Q96RR1 43-684); experiment: as above; conditions: protein: recombinant; tags: SUMO tag removed (ULP1); chain copies: 6; label: 3' fluorescein-T; single strand
T3 sequence: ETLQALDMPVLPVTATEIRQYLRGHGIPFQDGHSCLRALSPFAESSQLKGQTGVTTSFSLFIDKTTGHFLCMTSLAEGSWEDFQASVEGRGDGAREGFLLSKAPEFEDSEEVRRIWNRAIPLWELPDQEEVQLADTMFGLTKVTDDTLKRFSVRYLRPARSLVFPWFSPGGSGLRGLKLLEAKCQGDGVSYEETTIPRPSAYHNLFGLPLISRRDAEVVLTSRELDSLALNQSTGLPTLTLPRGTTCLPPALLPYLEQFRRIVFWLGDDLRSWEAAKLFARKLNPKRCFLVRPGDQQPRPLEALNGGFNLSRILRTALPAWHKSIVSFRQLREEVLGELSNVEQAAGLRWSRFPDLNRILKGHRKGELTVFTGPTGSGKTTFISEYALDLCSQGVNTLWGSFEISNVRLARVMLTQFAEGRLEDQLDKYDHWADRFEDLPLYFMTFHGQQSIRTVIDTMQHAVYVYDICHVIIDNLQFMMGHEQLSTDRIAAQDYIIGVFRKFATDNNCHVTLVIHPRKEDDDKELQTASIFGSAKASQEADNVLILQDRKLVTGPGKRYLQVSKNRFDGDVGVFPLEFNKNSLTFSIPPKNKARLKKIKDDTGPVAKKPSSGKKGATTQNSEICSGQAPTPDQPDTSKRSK

Twinkle NTD [4] = molecular target: T1, Twinkle NTD; experiment: fluorescence anisotropy; no NaCl added; weak phase of two-site fit; 50 mM Tris acetate pH 7.5, 10% glycerol, 0.05% Tween-20, 0.5 mM DTT, 0 or 50 mM NaCl; 2.5 nM DNA; no Mg2+ or nucleotide listed; temperature not stated; conditions: protein: recombinant; tags: SUMO tag removed (ULP1); label: 3' fluorescein-T; single strand
[5] = molecular target: T2, Twinkle CTD (C-terminal domain plus …); experiment: fluorescence anisotropy; 50 mM NaCl; 50 mM Tris acetate pH 7.5, 10% glycerol, 0.05% Tween-20, 0.5 mM DTT, 0 or 50 mM NaCl; 2.5 nM DNA; no Mg2+ or nucleotide listed; temperature not stated; conditions: protein: recombinant; tags: SUMO tag removed (ULP1); chain copies: 6; label: 3' fluorescein-T; single strand
[6] = molecular target: T3, FL Twinkle (mitochondrial helicase); experiment: as above; conditions: protein: recombinant; tags: SUMO tag removed (ULP1); chain copies: 6; label: 3' fluorescein-T; single strand
[7] = molecular target: the molecule itself; experiment: SEC; Superdex 200 Increase 10/300 GL, 4 °C, 0.3 ml/min; 50 μl of 10 μM (monomer) CTD in 50 mM Tris-Cl pH 7.1, 5% glycerol, 600 mM NaCl; size from a calibration curve of protein standards
Twinkle NTD [8] = molecular target: T1, Twinkle NTD; experiment: fluorescence anisotropy; no NaCl added; 50 mM Tris acetate pH 7.5, 10% glycerol, 0.05% Tween-20, 0.5 mM DTT, 0 or 50 mM NaCl; 2.5 nM DNA; no Mg2+ or nucleotide listed; temperature not stated; conditions: protein: recombinant; tags: SUMO tag removed (ULP1); label: 3' fluorescein-T; single strand
[9] = molecular target: T3, FL Twinkle (mitochondrial helicase); experiment: fluorescence anisotropy; 50 mM NaCl (error exceeds value); 50 mM Tris acetate pH 7.5, 10% glycerol, 0.05% Tween-20, 0.5 mM DTT, 0 or 50 mM NaCl; 2.5 nM DNA; no Mg2+ or nucleotide listed; temperature not stated; conditions: protein: recombinant; tags: SUMO tag removed (ULP1); chain copies: 6; label: 3' fluorescein-T; single strand
Twinkle NTD [10] = molecular target: T1, Twinkle NTD; experiment: fluorescence anisotropy; no NaCl added; negligible binding; 50 mM Tris acetate pH 7.5, 10% glycerol, 0.05% Tween-20, 0.5 mM DTT, 0 or 50 mM NaCl; 2.5 nM DNA; no Mg2+ or nucleotide listed; temperature not stated; conditions: protein: recombinant; tags: SUMO tag removed (ULP1); label: 3' fluorescein-T; single strand
[11] = molecular target: the molecule itself; experiment: SEC; Superdex 200 Increase 10/300 GL, 4 °C, 0.3 ml/min; 15 μl of 38.5 μM (monomer) FL Twinkle in 50 mM Tris-Cl pH 7.1, 5% glycerol, 300 mM NaCl, 1 mM TCEP; size from a calibration curve of protein standards

Binder: TGCTATAACTCTTGAACACT (ssDNA) [20 nt ssDNA]
- Kd (Twinkle NTD [1]): 18 ± 7 nM
- Kd [2]: 2.2 ± 0.7 nM
- Kd [3]: 1.9 ± 0.5 nM
- Kd (Twinkle NTD [4]): 1200 ± 640 nM
- Kd [5]: 50 ± 11 nM
- Kd [6]: 8.8 ± 1.3 nM

B1: Twinkle C-terminal domain plus linker (amino acids 360-684) (domain or fragment, human, UniProt Q96RR1 360-684, looked up)
chain: LPAWHKSIVSFRQLREEVLGELSNVEQAAGLRWSRFPDLNRILKGHRKGELTVFTGPTGSGKTTFISEYALDLCSQGVNTLWGSFEISNVRLARVMLTQFAEGRLEDQLDKYDHWADRFEDLPLYFMTFHGQQSIRTVIDTMQHAVYVYDICHVIIDNLQFMMGHEQLSTDRIAAQDYIIGVFRKFATDNNCHVTLVIHPRKEDDDKELQTASIFGSAKASQEADNVLILQDRKLVTGPGKRYLQVSKNRFDGDVGVFPLEFNKNSLTFSIPPKNKARLKKIKDDTGPVAKKPSSGKKGATTQNSEICSGQAPTPDQPDTSKRSK
notes: human mitochondrial helicase Twinkle, amino acids 360-684 (linker region and C-terminal domain; 36,650 Da); Cloned in the pET28 SUMO expression vector; SUMO cut with ULP1 SUMO-protease; the fusion was purified on Ni resin, so it probably carried a His tag that left with SUMO; also called CTD; Twinkle CTD; source: E. coli Rosetta 2 DE3 pLacI, purified (PEI, ammonium sulfate, Ni-NTA, heparin)
- stoichiometry N [7]: ~12 subunit

Binder: ATAACTCTTGAACACT (ssDNA) [16 nt ssDNA]
- Kd [2]: 5.2 ± 1.4 nM
- Kd [3]: 2.8 ± 0.7 nM
- Kd (Twinkle NTD [8]): 105 ± 24 nM
- Kd [6]: 22.6 ± 5.1 nM

Binder: AACTCTTGAACACT (ssDNA) [14 nt ssDNA]
- Kd [2]: 8.8 ± 1.5 nM
- Kd [3]: 3.3 ± 0.7 nM
- Kd (Twinkle NTD [8]): 121 ± 26 nM
- Kd [6]: 39 ± 16 nM

Binder: CTCTTGAACACT (ssDNA) [12 nt ssDNA]
- Kd [2]: 21.7 ± 3 nM
- Kd [3]: 5.2 ± 1 nM
- Kd (Twinkle NTD [8]): 141 ± 25 nM
- Kd [6]: 53 ± 17 nM

Binder: TGTGTTAGTTGGGGGGTGACTGTTAAAAGT (ssDNA) [30 nt ssDNA]
- Kd (Twinkle NTD [1]): 17.5 ± 4 nM
- Kd [2]: 1.7 ± 0.5 nM
- Kd [3]: 1.6 ± 0.3 nM
- Kd (Twinkle NTD [4]): 730 ± 450 nM
- Kd [5]: 4.5 ± 0.9 nM
- Kd [6]: 2.6 ± 0.5 nM

Binder: TGAACACT (ssDNA) [8 nt ssDNA]
- Kd [9]: 10 ± 12 nM
- binding result (Twinkle NTD [10]): no binding
- Kd [2]: 116 ± 41 nM
- Kd [3]: 9 ± 4.9 nM

B2: full-length (FL) human Twinkle (amino acids 43-684) (enzyme, UniProt Q96RR1 43-684, looked up)
chain: ETLQALDMPVLPVTATEIRQYLRGHGIPFQDGHSCLRALSPFAESSQLKGQTGVTTSFSLFIDKTTGHFLCMTSLAEGSWEDFQASVEGRGDGAREGFLLSKAPEFEDSEEVRRIWNRAIPLWELPDQEEVQLADTMFGLTKVTDDTLKRFSVRYLRPARSLVFPWFSPGGSGLRGLKLLEAKCQGDGVSYEETTIPRPSAYHNLFGLPLISRRDAEVVLTSRELDSLALNQSTGLPTLTLPRGTTCLPPALLPYLEQFRRIVFWLGDDLRSWEAAKLFARKLNPKRCFLVRPGDQQPRPLEALNGGFNLSRILRTALPAWHKSIVSFRQLREEVLGELSNVEQAAGLRWSRFPDLNRILKGHRKGELTVFTGPTGSGKTTFISEYALDLCSQGVNTLWGSFEISNVRLARVMLTQFAEGRLEDQLDKYDHWADRFEDLPLYFMTFHGQQSIRTVIDTMQHAVYVYDICHVIIDNLQFMMGHEQLSTDRIAAQDYIIGVFRKFATDNNCHVTLVIHPRKEDDDKELQTASIFGSAKASQEADNVLILQDRKLVTGPGKRYLQVSKNRFDGDVGVFPLEFNKNSLTFSIPPKNKARLKKIKDDTGPVAKKPSSGKKGATTQNSEICSGQAPTPDQPDTSKRSK
notes: human mitochondrial helicase Twinkle, amino acids 43-684; SUMO fusion cut with ULP1 SUMO-protease; the fusion was purified on Ni resin, so it probably carried a His tag that left with SUMO; also called FL Twinkle; TWNK; source: E. coli Rosetta 2 DE3 pLacI, purified (PEI, ammonium sulfate, Ni sepharose, Q sepharose, heparin)
- stoichiometry N [11]: ~7 subunits
